What was measured:
[1] = tested on: high antigen (MUC1*) expressing cancer cells; assay: PrestoBlue plate reader killing assays over multiple cancer sub-types (FIGS. 38A-45D); format: cell-based; conditions: breast (T47D-MUC1*) and pancreatic (HPAF II-MUC1*) cancer cells
Protocol: Therefore, although seldom done, it is critically important to test anti-cancer therapeutics against both the low antigen expressing early cancer cells and the later cancer cells that express high levels of the targeted antigen. In FIGS. 38A-45D, the ability of MNC2-ADCs and MN20A10-ADCs to kill multiple cancer sub-types was tested, where the tumors were either low-medium antigen expressing cancer cells or high antigen expressing cancer cells. […] The low expressing cancer cells were killed by treatment with either MNC2-ADC or MN20A10-ADC in the high nanomolar range of ADC, which is considered druggable. The cancer cells that expressed high levels of MUC1* were killed with IC50s in the single digit nanomolar range. […]
Another method of measuring the killing activity of mAb MNC2-ADCs and mAb MN20A10-ADCs against target cancer cells including T47D breast cancer cells NCI-H1975 non-small cell lung cancer cells and HPAFII pancreatic cancer cells is to use the PrestoBlue live/dead cell assay (ThermoFisher). […] After 72 hour-120 hour incubation in a 37° C./5% CO2 incubator, cell viability was measure by fluorescence using the PrestoBlue HS assay (ThermoFisher). […] Fluorescence (Ex 560 nm/Em 590 nm) was recorded after 30-90 min. incubation using a Tecan plate reader. Percentage viability was determined by PrestoBlue HS staining and normalized to 1 μM taxol treated cells. […]

[2] = tested on: NCI-H1975 lung cancer cells; assay: xCELLigence real-time killing assay (impedance); format: cell-based, human; conditions: for time course of effect: 40 hours versus 120 hours; for ADC concentration at which essentially all the lung tumor cells were killed: readout 40 hours; for ADC concentration at which essentially all the tumor cells were killed: readout 120 hours post ADC addition
Protocol: FIG. 51A-51I show traces from the real-time killing assays performed on an xCELLigence instrument. In this assay, impedance is measured in real-time. When the adherent cancer cells are killed and come off of the electrode surface, impedance (insulation) decreases. NCI-H1975 lung cancer cells were plated onto multi-electrode-well plates at 5,000 cells per well and allowed to adhere and grow for 24 hours before the addition of ADCs. Either MNC2-MMAE, DAR 4.1, MN20A10-MMAE, DAR 5.8, MNC2-MMAF, DAR 3.7, MN20A10-MMAF, DAR 3.8, MNC2-Deruxtecan, DAR 7.2, or MN20A10-Deruxtecan, DAR 4.6, was then added to the cancer cells. […] Taxol and Triton are added as the positive killing control. […].
FIGS. 56A-56D show traces from the real-time killing assays performed on an xCELLigence instrument. In this assay, impedance is measured in real-time. When the adherent cancer cells are killed and come off of the electrode surface, impedance (insulation) decreases. Here NCI-H1975 non-small cell lung cancer cells that express very low levels of MUC1*, were plated onto multi-electrode 96-well plates at 5,000 cells per well and allowed to adhere and grow for 24 hours before the addition of ADCs. Either MNC2-Exatecan, DAR 8.2, MNC2-Deruxtecan, DAR 4.0, MNC2-MMAE, DAR 4.1, or free Exatecan at 50 μM, was then added to the cancer cells.
To assess real-time killing of target cancer cells including breast cancer cells (T47D), non-small cell lung cancer cells (NCI-H1975) and pancreatic cancer cells (HP AF II) assays were performed on an xCELLigence RTCA MP Instrument (Agilent). Target Cancer cells were seeded onto a multi-electrode well plate at a density of 5000 cells/well (100 μL of a 50,000 cells/mL stock) and incubated for 24 hr in a 37° C./5% CO2 incubator. mAb MNC2 ADCs or mAb MN20A10-ADCs were prepared as a 2× solution in corresponding growth media and 100 μL of each concentration was added to target cells. As a positive control (100% cell killing) cells were treated with either 1% triton or 1 μM Taxol instead of ADC. After 40-120 hours incubation in a 37° C./5% CO2 incubator cell killing was assessed. In this assay, impedance is measured in real-time. When the adherent cancer cells are killed and come off the electrode surface, impedance (insulation) decreases.
MNC2-ADCs and MN20A10-ADCs were also assayed for their ability to kill both low and high MUC1* expressing cells by monitoring killing in real-time using an xCELLigence instrument. In the xCelligence system, target cancer cells, which are adherent, are plated onto electrode array 96-well plates. Adherent cells insulate the electrode and increase the impedance. The number of adherent cancer cells is directly proportional to impedance. […] Therefore, increasing impedance reflects the growth of the cancer cells and decreasing impedance reflects the killing of the cancer cells.

B1: MN20A10-MMAF (conjugate)
VH: QVQLVESGGGLVKPGGSLRLSCAASGFTFSTYAMSWIRQAPGKGLEWVASIGRAGSTYYSDSVKGRFTISRDNAKNSLYLQMNSLRAEDTAVYYCARGPIYNDYDEFAYWGQGTLVTVSS
VL: EIVLTQSPATLSLSPGERATLSCKSSQSVLYSSNQKNYLAWYQQKPGQAPRLLIYWASTRESGIPARFSGSGSGTDFTLTISSLEPEDFAVYYCHQYLSSLTFGGGTKVEIKR
In the case of B1, the “concentrations at which cells engineered to express more MUC1* were killed” value [1] is reported as “very low nanomolar concentrations”, the “time course of effect” value [2] is reported as “stasis at 40 hours, but killing at 120 hours” and the “ADC concentration at which essentially all the lung tumor cells were killed” value [2] is reported as 167 nM. For the same molecule, the “ADC concentration at which essentially all the tumor cells were killed” value [2] was 56 nM.

B2: MNC2-MMAF (conjugate)
VH: EVQLVESGGGLVKPGGSLRLSCAASGFTFSGYAMSWVRQAPGKGLEWVSTISSGGTYIYYPDSVKGRFTISRDNAKNSLYLQMNSLRAEDTAVYYCARLGGDNYYEYFDVWGKGTTVTVSS
VL: DIVLTQSPASLAVSPGQRATITCRASKSVSTSGYSYMHWYQQKPGQPPKLLIYLASNLESGVPARFSGSGSGTDFTLTINPVEANDTANYYCQHSRELPFTFGGGTKVEIKRT
For B2, the “concentrations at which cells engineered to express more MUC1* were killed” value [1] was “very low nanomolar concentrations”, the “time course of effect” value [2] was “stasis at 40 hours, but killing at 120 hours” and the “ADC concentration at which essentially all the lung tumor cells were killed” value [2] was 167 nM. The “ADC concentration at which essentially all the tumor cells were killed” value [2] was 56 nM.

B3: MNC2-Deruxtecan (conjugate)
VH: B2 VH
VL: B2 VL
In the case of B3, the “time course of effect” value [2] is reported as “stasis at 40 hours, but killing at 120 hours”.

— patent US12491259B2, “Anti-variable MUC1* antibodies and uses thereof” (Minerva Biotechnologies Corporation, priority 2022, dated 2025)
